Laboratory results reported in paper PMC4361889.

Target: Taliglucerase alfa (recombinant GCase) (human) (UniProt P04062)
Experiment: AUC

population of the dimer species: 47%
stoichiometry N: 2
Substance: Taliglucerase alfa (recombinant GCase) (from UniProt P04062 40-536) (enzyme)
